Target: PHR1 S11A-His (UniProt Q94CL7 1-409, S11A)
Experiment: EMSA; without SnRK1; 10 mM Tris-HCl pH 8.0, 100 mM NaCl, 10% glycerol, 2 mM DTT, 0.05% NP-40; 0.5 ug protein in 30 ul, 22 C, 30 min; 4.5% acrylamide gel, 0.5x TBE
Details: protein: recombinant; tags: His (pET28b(+)); chain copies: 2; label: 32P 5' end label on sense strand (T4 PNK); blunt

Sequence of PHR1 S11A-His (Q94CL7 whole entry S11A): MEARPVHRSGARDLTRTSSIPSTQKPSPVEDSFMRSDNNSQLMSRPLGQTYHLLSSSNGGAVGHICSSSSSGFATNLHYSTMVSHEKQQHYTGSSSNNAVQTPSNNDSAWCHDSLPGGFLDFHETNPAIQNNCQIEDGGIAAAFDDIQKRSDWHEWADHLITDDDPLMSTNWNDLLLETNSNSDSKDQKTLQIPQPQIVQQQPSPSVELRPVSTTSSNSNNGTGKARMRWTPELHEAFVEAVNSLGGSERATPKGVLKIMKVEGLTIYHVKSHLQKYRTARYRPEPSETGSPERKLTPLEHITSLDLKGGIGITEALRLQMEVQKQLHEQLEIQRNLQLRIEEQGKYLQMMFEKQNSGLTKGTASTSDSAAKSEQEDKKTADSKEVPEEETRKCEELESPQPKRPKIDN

B1: AtIPS1 P1BS probe (dsDNA)
DNA 1: CAATTTTGGTAACGGCATATTCCATCGGATGATCCAAAATTCTCAAAA
DNA 2: TTTTGAGAATTTTGGATCATCCGATGGAATATGCCGTTACCAAAATTG
  binding result: binds
